Results published in patent publication US20200165325A1.

How the values were obtained:
[1] = target: HIV-1 Env of strain 0330.v4.c3 (HIV-1)
[2] = target: HIV-1 Env of strain 0815.v3.c3 (HIV-1)
[3] = target: HIV-1 Env of strain 1054_07_TC4_1499 (HIV-1)
[4] = target: HIV-1 Env of strain 1056_10_TA11_1826 (HIV-1)
[5] = target: HIV-1 Env of strain 211-9 (HIV-1)
[6] = target: HIV-1 Env of strain 231966.c02 (HIV-1)
[7] = target: HIV-1 Env of strain 3016.v5.c45 (HIV-1)
[8] = target: HIV-1 Env of strain 3103.v3.c10 (HIV-1)
[9] = target: HIV-1 Env of strain 3415.v1.c1 (HIV-1)
[10] = target: HIV-1 Env of strain 3718.v3.c11 (HIV-1)
[11] = target: HIV-1 Env of strain 6480.v4.c25 (HIV-1)
[12] = target: HIV-1 Env of strain 6535.3 (HIV-1)
[13] = target: HIV-1 Env of strain 6540.v4.c1 (HIV-1)
[14] = target: HIV-1 Env of strain 6811.v7.c18 (HIV-1)
[15] = target: HIV-1 Env of strain 928-28 (HIV-1)
[16] = target: HIV-1 Env of strain AC10.0.29 (HIV-1)
[17] = target: HIV-1 Env of strain C3347.c11 (HIV-1)
[18] = target: HIV-1 Env of strain CAAN5342.A2 (HIV-1)
[19] = target: HIV-1 Env of strain CAP45.2.00.G3 (HIV-1)
[20] = target: HIV-1 Env of strain CNE17 (HIV-1)
[21] = target: HIV-1 Env of strain CNE20 (HIV-1)
[22] = target: HIV-1 Env of strain CNE21 (HIV-1)
[23] = target: HIV-1 Env of strain CNE30 (HIV-1)
[24] = target: HIV-1 Env of strain CNE53 (HIV-1)
[25] = target: HIV-1 Env of strain CNE58 (HIV-1)
[26] = target: HIV-1 Env of strain Ce0393_C3 (HIV-1)
[27] = target: HIV-1 Env of strain Ce1176_A3 (HIV-1)
[28] = target: HIV-1 Env of strain Ce2010_F5 (HIV-1)
[29] = target: HIV-1 Env of strain Ce2060_G9 (HIV-1)
[30] = target: HIV-1 Env of strain Ce703010054_2A2 (HIV-1)
[31] = target: HIV-1 Env of strain Du156.12 (HIV-1)
[32] = target: HIV-1 Env of strain Du172.17 (HIV-1)
[33] = target: HIV-1 Env of strain HIV-16845-2.22 (HIV-1)
[34] = target: HIV-1 Env of strain P0402_c2_11 (HIV-1)
[35] = target: HIV-1 Env of strain P1981_C5_3 (HIV-1)
[36] = target: HIV-1 Env of strain Q259.d2.17 (HIV-1)
[37] = target: HIV-1 Env of strain Q461.e2 (HIV-1)
[38] = target: HIV-1 Env of strain Q769.d22 (HIV-1)
[39] = target: HIV-1 Env of strain Q842.d12 (HIV-1)
[40] = target: HIV-1 Env of strain REJO4541.67 (HIV-1)
[41] = target: HIV-1 Env of strain RHPA4259.7 (HIV-1)
[42] = target: HIV-1 Env of strain SC422661.8 (HIV-1)
[43] = target: HIV-1 Env of strain T250-4 (HIV-1)
[44] = target: HIV-1 Env of strain T251-18 (HIV-1)
[45] = target: HIV-1 Env of strain T255-34 (HIV-1)
[46] = target: HIV-1 Env of strain T278-50 (HIV-1)
[47] = target: HIV-1 Env of strain THRO4156.18 (HIV-1)
[48] = target: HIV-1 Env of strain TRJO4551.58 (HIV-1)
[49] = target: HIV-1 Env of strain WEAU_d15_410_787 (HIV-1)
[50] = target: HIV-1 Env of strain WITO4160.33 (HIV-1)
[51] = target: HIV-1 Env of strain X1193_c1 (HIV-1)
[52] = target: HIV-1 Env of strain X2131_C1_B5 (HIV-1)
[53] = target: HIV-1 Env of strain ZM109F.PB4 (HIV-1)
[54] = target: HIV-1 Env of strain ZM197M.PB7 (HIV-1)
[55] = target: HIV-1 Env of strain ZM233M.PB6 (HIV-1)
[56] = target: HIV-1 Env of strain ZM249M.PL1 (HIV-1)
[57] = target: HIV-1 Env of strain ZM53M.PB12 (HIV-1)

NIH45-46 G54W IgG (antibody) gave an In vitro neutralization IC80 [1] of 0.11 µg/mL, an In vitro neutralization IC80 [2] of 0.003 µg/mL and an In vitro neutralization IC80 [3] of 0.165 µg/mL. The In vitro neutralization IC80 [4] was 0.16 µg/mL, the In vitro neutralization IC80 [5] was greater than 50 µg/mL and the In vitro neutralization IC80 [6] was 0.11 µg/mL. The In vitro neutralization IC80 [7] was 15.4 µg/mL, the In vitro neutralization IC80 [8] was 0.56 µg/mL and the In vitro neutralization IC80 [9] was 0.023 µg/mL. The In vitro neutralization IC80 [10] was 0.04 µg/mL, the In vitro neutralization IC80 [11] was 0.021 µg/mL and the In vitro neutralization IC80 [12] was 0.13 µg/mL. The In vitro neutralization IC80 [13] was greater than 50 µg/mL, the In vitro neutralization IC80 [14] was 0.033 µg/mL and the In vitro neutralization IC80 [15] was 0.25 µg/mL. The In vitro neutralization IC80 [16] was 0.63 µg/mL, the In vitro neutralization IC80 [17] was 0.028 µg/mL and the In vitro neutralization IC80 [18] was 0.21 µg/mL. The In vitro neutralization IC80 [19] was greater than 50 µg/mL, the In vitro neutralization IC80 [20] was 0.127 µg/mL and the In vitro neutralization IC80 [21] was 0.48 µg/mL. For the same substance, the In vitro neutralization IC80 [22] was 0.16 µg/mL, the In vitro neutralization IC80 [23] was 0.196 µg/mL and the In vitro neutralization IC80 [24] was 0.005 µg/mL. For the same substance, the In vitro neutralization IC80 [25] was 0.05 µg/mL, the In vitro neutralization IC80 [26] was 0.089 µg/mL and the In vitro neutralization IC80 [27] was 0.45 µg/mL. It also gave an In vitro neutralization IC80 [28] of 0.187 µg/mL, an In vitro neutralization IC80 [29] of 0.042 µg/mL and an In vitro neutralization IC80 [30] of 0.077 µg/mL. For the same substance, the In vitro neutralization IC80 [31] was 0.005 µg/mL, the In vitro neutralization IC80 [32] was 42.9 µg/mL and the In vitro neutralization IC80 [33] was 2.1 µg/mL. It also gave an In vitro neutralization IC80 [34] of 0.023 µg/mL, an In vitro neutralization IC80 [35] of 0.07 µg/mL and an In vitro neutralization IC80 [36] of 0.014 µg/mL. It also gave an In vitro neutralization IC80 [37] of 0.091 µg/mL, an In vitro neutralization IC80 [38] of 0.009 µg/mL and an In vitro neutralization IC80 [39] of 0.025 µg/mL. The In vitro neutralization IC80 [40] was 0.013 µg/mL, the In vitro neutralization IC80 [41] was 0.007 µg/mL and the In vitro neutralization IC80 [42] was 0.07 µg/mL. For the same substance, the In vitro neutralization IC80 [43] was 44.9 µg/mL, the In vitro neutralization IC80 [44] was 0.92 µg/mL and the In vitro neutralization IC80 [45] was 0.099 µg/mL. It also gave an In vitro neutralization IC80 [46] greater than 50 µg/mL, an In vitro neutralization IC80 [47] of 1.81 µg/mL and an In vitro neutralization IC80 [48] of 0.05 µg/mL. For the same substance, the In vitro neutralization IC80 [49] was 0.003 µg/mL, the In vitro neutralization IC80 [50] was 0.04 µg/mL and the In vitro neutralization IC80 [51] was 0.009 µg/mL. The In vitro neutralization IC80 [52] was 0.24 µg/mL, the In vitro neutralization IC80 [53] was 0.07 µg/mL and the In vitro neutralization IC80 [54] was 0.18 µg/mL. It also gave an In vitro neutralization IC80 [55] of 0.11 µg/mL, an In vitro neutralization IC80 [56] of 0.007 µg/mL and an In vitro neutralization IC80 [57] of 0.16 µg/mL.
